Test results taken from EP1562972B1.
Blank lines part the entries; values can stand above or below the substance they belong to.

Legend:
[1] = biological target: human neonatal Fc receptor (FcRn), recombinant GPI-linked, on NS0 cells (human) (UniProt P55899); test: competition flow cytometry, NS0 cells with human FcRn, vs biotinylated HuEP5C7-IgG2M3, FSB pH 6.0
[2] = biological target: human neonatal Fc receptor (FcRn), recombinant GPI-linked, on NS0 cells (human) (UniProt P55899); test: competition flow cytometry, NS0 cells with human FcRn, vs biotinylated OST577-IgG2M3, FBB pH 6.0
[3] = biological target: rhesus neonatal Fc receptor (FcRn), recombinant GPI-linked, on NS0 cells (rhesus) (UniProt H9Z6D2); test: competition flow cytometry, NS0 cells with rhesus FcRn, vs biotinylated OST577-IgG2M3, FBB pH 6.0
[4] = biological target: human neonatal Fc receptor (FcRn), recombinant GPI-linked, on NS0 cells (human) (UniProt P55899); test: competition flow cytometry, NS0 cells with human FcRn, vs biotinylated OST577-IgG1, FBB pH 6.0
[5] = biological target: rhesus neonatal Fc receptor (FcRn), recombinant GPI-linked, on NS0 cells (rhesus) (UniProt H9Z6D2); test: competition flow cytometry, NS0 cells with rhesus FcRn, vs biotinylated OST577-IgG1, FBB pH 6.0
[6] = biological target: human neonatal Fc receptor (FcRn), recombinant GPI-linked, on NS0 cells (human) (UniProt P55899); test: competition flow cytometry, NS0 cells with human FcRn, vs biotinylated HuEP5C7-IgG2M3, FBB pH 6.0

IC50 [1]: 32 µg/mL
Relative Binding (ratio (IC50 wild-type / IC50 mutant)) [1]: 0.33
Substance: OST577-IgG2M3 L314Q mutant (antibody)

IC50 [2]: 1.79 µg/mL
Relative Binding (ratio (IC50 wild-type / IC50 mutant)) [2]: 6.7
IC50 [3]: 1.92 µg/mL
Relative Binding (ratio (IC50 wild-type / IC50 mutant)) [3]: 7.7
Substance: OST577-IgG2M3 M428L mutant (antibody)

IC50 [4]: 0.896 µg/mL
IC50 [5]: 0.629 µg/mL
Relative Binding (ratio (IC50 wild-type / IC50 mutant)) [5]: 14
Substance: OST577-IgG1 M428L mutant (antibody)

IC50 [1]: 20.2 µg/mL
Relative Binding (ratio (IC50 wild-type / IC50 mutant)) [1]: 0.53
Substance: OST577-IgG2M3 L314W mutant (antibody)

IC50 [6]: 2.97 µg/mL
IC50 [1]: 3.4 µg/mL
Substance: OST577-IgG2M3 M428F mutant (antibody)

IC50 [1]: 102 µg/mL
Substance: OST577-IgG2M3 L314R mutant (antibody)

IC50 [2]: 0.43 µg/mL
IC50 [3]: 0.554 µg/mL
Relative Binding (ratio (IC50 wild-type / IC50 mutant)) [3]: 27
Substance: OST577-IgG2M3 T250Q/M428L double mutant (antibody)

IC50 [4]: 0.351 µg/mL
Relative Binding (ratio (IC50 wild-type / IC50 mutant)) [4]: 29
IC50 [5]: 0.236 µg/mL
Relative Binding (ratio (IC50 wild-type / IC50 mutant)) [5]: 37
Substance: OST577-IgG1 T250Q/M428L double mutant (antibody)

IC50 [4]: 3.44 µg/mL
Relative Binding (ratio (IC50 wild-type / IC50 mutant)) [4]: 4
Substance: OST577-IgG1 M428F mutant (antibody)

IC50 [1]: 68.7 µg/mL
Relative Binding (ratio (IC50 wild-type / IC50 mutant)) [1]: 0.16
Substance: OST577-IgG2M3 L314A mutant (antibody)
